The target in this test is T1, calcineurin (Homo sapiens, UniProt Q08209).
T1 construct: made in house
In words: Isothermal titration calorimetry (ITC) of RCAN1 constructs with calcineurin. Type of test: binding. The protocol:
Only RCAN1^89-197 (SEQ ID NO: 2) was labeled with NMR active nuclei; calcineurin was unlabeled. […] See, FIG. 2.
Affinity of each RCAN1 construct for calcineurin was measured using ITC to determine the individual contribution of each motif to binding. […] See, FIG. 2A.
The CNB subunit was analyzed to determine whether the subunit influences binding by generating a construct of only the calcineurin catalytic domain, CNAcat containing residues 1-348, and identical to a previously characterized CNA construct. See, Takeuchi et al., Structure 15, 587-97 (2007).
To determine how the TxxP (SEQ ID NO: 11) motif binds and engages calcineurin, the residues within and surrounding the TxxP (SEQ ID NO: 11) motif were mutated (i.e. K182A/E, Q185A, E190R/A, Y191A) and ITC was used to quantify which residues are most critical for calcineurin binding. ITC was used to determine whether the TxxP (SEQ ID NO: 11) motif binds only the CNA catalytic domain, or also requires CNB for binding using RCAN1^128-197, without requiring the LxVP (SEQ ID NO: 10) motif. Calcineurin active site residues were mutated as follows: R122A/D, H151A, D118A, R254A/D; and the change in affinity was quantified.

T1 sequence (Q08209 1-391 limits assumed): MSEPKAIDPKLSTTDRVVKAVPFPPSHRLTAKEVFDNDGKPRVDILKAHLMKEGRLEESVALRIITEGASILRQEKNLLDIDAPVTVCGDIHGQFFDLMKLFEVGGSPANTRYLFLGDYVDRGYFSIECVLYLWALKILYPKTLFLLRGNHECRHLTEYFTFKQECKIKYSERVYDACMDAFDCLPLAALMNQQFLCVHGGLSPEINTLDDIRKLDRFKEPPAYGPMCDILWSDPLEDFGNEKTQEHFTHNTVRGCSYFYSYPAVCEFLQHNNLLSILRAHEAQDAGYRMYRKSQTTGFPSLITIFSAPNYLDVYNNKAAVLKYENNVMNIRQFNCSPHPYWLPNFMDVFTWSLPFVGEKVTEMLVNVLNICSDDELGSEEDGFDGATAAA
T1 sequence (P63098 whole entry partner): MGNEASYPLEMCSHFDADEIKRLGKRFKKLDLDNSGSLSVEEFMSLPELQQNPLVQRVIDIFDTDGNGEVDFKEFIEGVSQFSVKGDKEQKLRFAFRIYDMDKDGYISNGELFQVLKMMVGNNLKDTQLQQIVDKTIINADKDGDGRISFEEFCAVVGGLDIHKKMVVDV

Regarding “RCAN1^128-192: within SEQ ID NO: 2; includes RCAN1^128-164 and the TxxP site”, the Kd is about 300 nM.

B1: RNA-binding domain (amino acid positions 1-88): structured N-terminal RNA-binding domain of RCAN1, amino acid positions 1-88 (protein, UniProt P53805 1-88, looked up, fragment)
chain: MEDGVAGPQLGAAAEAAEAAEARARPGVTLRPFAPLSGAAEADEGGGDWSFIDCEMEEVDLQDLPSATIACHLDPRVFVDGLCRAKFE
As for B1, the “binding to calcineurin (in words)” value was “does not interact directly”.

The values above are taken from patent US9453061B2, “Method and compositions for treatment of calcineurin-related diseases” (BROWN UNIVERSITY, priority 2014, dated 2016).
